Data taken from the supplement of paper PMC9112550, “Optimization of the antimicrobial peptide Bac7 by deep mutational scanning” (BMC Biology, 2022).

Tested on: Escherichia coli TOP10
Test: shrunken log2 fold change of peptide-encoding DNA abundance (4.5 h post-induction vs induction); higher = less antimicrobial activity (less host growth inhibition)
Details: time post-induction: 4.5 h; library: site-saturation at positions 5, 18, 19, 20
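Further: peptides expressed intracellularly from a pBAD plasmid library in pooled LB shake-flask culture, induced with 0.3% L-arabinose, DNA abundance read by NGS, three biological replicates, DESeq2 with apeglm shrinkage.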

RRIRNRPPRLPRPRPRPRSNPRP
shrunken log2 fold change: -0.0866

RRIRNRPPRLPRPRPRPRSSPRP
shrunken log2 fold change: -0.145

RRIRNRPPRLPRPRPRPRTMPRP
shrunken log2 fold change: 0.135

RRIRNRPPRLPRPRPRPRVHPRP
shrunken log2 fold change: 0.172

RRIRNRPPRLPRPRPRPRVTPRP
shrunken log2 fold change: 0.0249

RRIRNRPPRLPRPRPRPRWQPRP
shrunken log2 fold change: -0.00911

RRIRNRPPRLPRPRPRPRYCPRP
shrunken log2 fold change: -0.0932

RRIRNRPPRLPRPRPRPSAGPRP
shrunken log2 fold change: -0.225

RRIRNRPPRLPRPRPRPSDQPRP
shrunken log2 fold change: 0.0574

RRIRNRPPRLPRPRPRPSDYPRP
shrunken log2 fold change: 0.075

RRIRNRPPRLPRPRPRPSENPRP
shrunken log2 fold change: -0.296

RRIRNRPPRLPRPRPRPSEVPRP
shrunken log2 fold change: -0.0684

RRIRNRPPRLPRPRPRPSFDPRP
shrunken log2 fold change: -0.427

RRIRNRPPRLPRPRPRPSFQPRP
shrunken log2 fold change: -0.274

RRIRNRPPRLPRPRPRPSGCPRP
shrunken log2 fold change: -0.151

RRIRNRPPRLPRPRPRPSGTPRP
shrunken log2 fold change: -0.217

RRIRNRPPRLPRPRPRPSIGPRP
shrunken log2 fold change: -0.109

RRIRNRPPRLPRPRPRPSKVPRP
shrunken log2 fold change: 0.0123

RRIRNRPPRLPRPRPRPSMHPRP
shrunken log2 fold change: -0.805

RRIRNRPPRLPRPRPRPSMMPRP
shrunken log2 fold change: -0.589

RRIRNRPPRLPRPRPRPSNAPRP
shrunken log2 fold change: -0.343

RRIRNRPPRLPRPRPRPSNFPRP
shrunken log2 fold change: -0.31

RRIRNRPPRLPRPRPRPSPWPRP
shrunken log2 fold change: 0.0438

RRIRNRPPRLPRPRPRPSQFPRP
shrunken log2 fold change: -0.16

RRIRNRPPRLPRPRPRPSRCPRP
shrunken log2 fold change: 0.283

RRIRNRPPRLPRPRPRPSSEPRP
shrunken log2 fold change: -0.214

RRIRNRPPRLPRPRPRPSSMPRP
shrunken log2 fold change: -0.458

RRIRNRPPRLPRPRPRPSSRPRP
shrunken log2 fold change: -0.164

RRIRNRPPRLPRPRPRPSVQPRP
shrunken log2 fold change: -0.0954

RRIRNRPPRLPRPRPRPSWCPRP
shrunken log2 fold change: -0.0906

RRIRNRPPRLPRPRPRPSYKPRP
shrunken log2 fold change: -0.819

RRIRNRPPRLPRPRPRPSYSPRP
shrunken log2 fold change: -0.555

RRIRNRPPRLPRPRPRPSYWPRP
shrunken log2 fold change: -0.145

RRIRNRPPRLPRPRPRPTAIPRP
shrunken log2 fold change: -0.072

RRIRNRPPRLPRPRPRPTCFPRP
shrunken log2 fold change: 0.0784

RRIRNRPPRLPRPRPRPTCHPRP
shrunken log2 fold change: -0.643

RRIRNRPPRLPRPRPRPTCWPRP
shrunken log2 fold change: 0.696

RRIRNRPPRLPRPRPRPTDAPRP
shrunken log2 fold change: -0.15

RRIRNRPPRLPRPRPRPTETPRP
shrunken log2 fold change: -0.00947

RRIRNRPPRLPRPRPRPTFVPRP
shrunken log2 fold change: -0.185

RRIRNRPPRLPRPRPRPTKLPRP
shrunken log2 fold change: 0.0886

RRIRNRPPRLPRPRPRPTMCPRP
shrunken log2 fold change: -0.0233

RRIRNRPPRLPRPRPRPTMGPRP
shrunken log2 fold change: -0.0468

RRIRNRPPRLPRPRPRPTNGPRP
shrunken log2 fold change: -0.0138

RRIRNRPPRLPRPRPRPTNIPRP
shrunken log2 fold change: -0.312

RRIRNRPPRLPRPRPRPTPIPRP
shrunken log2 fold change: 0.189

RRIRNRPPRLPRPRPRPTQPPRP
shrunken log2 fold change: 0.6

RRIRNRPPRLPRPRPRPTREPRP
shrunken log2 fold change: 0.15

RRIRNRPPRLPRPRPRPTRIPRP
shrunken log2 fold change: -0.183

RRIRNRPPRLPRPRPRPTSVPRP
shrunken log2 fold change: 0.184

RRIRNRPPRLPRPRPRPTTFPRP
shrunken log2 fold change: -0.337

RRIRNRPPRLPRPRPRPTTHPRP
shrunken log2 fold change: 0.102

RRIRNRPPRLPRPRPRPTVQPRP
shrunken log2 fold change: -0.179

RRIRNRPPRLPRPRPRPTWCPRP
shrunken log2 fold change: -0.0306

RRIRNRPPRLPRPRPRPVALPRP
shrunken log2 fold change: -0.0331

RRIRNRPPRLPRPRPRPVATPRP
shrunken log2 fold change: -0.0503

RRIRNRPPRLPRPRPRPVAWPRP
shrunken log2 fold change: -0.01

RRIRNRPPRLPRPRPRPVCDPRP
shrunken log2 fold change: 0.0842

RRIRNRPPRLPRPRPRPVDVPRP
shrunken log2 fold change: -0.122

RRIRNRPPRLPRPRPRPVGTPRP
shrunken log2 fold change: -0.073

RRIRNRPPRLPRPRPRPVHAPRP
shrunken log2 fold change: 0.0862

RRIRNRPPRLPRPRPRPVHQPRP
shrunken log2 fold change: -0.121

RRIRNRPPRLPRPRPRPVHTPRP
shrunken log2 fold change: 0.0171

RRIRNRPPRLPRPRPRPVICPRP
shrunken log2 fold change: -0.102

RRIRNRPPRLPRPRPRPVIDPRP
shrunken log2 fold change: -0.123

RRIRNRPPRLPRPRPRPVMAPRP
shrunken log2 fold change: 0.156

RRIRNRPPRLPRPRPRPVMHPRP
shrunken log2 fold change: 0.077

RRIRNRPPRLPRPRPRPVMSPRP
shrunken log2 fold change: 0.0178

RRIRNRPPRLPRPRPRPVNTPRP
shrunken log2 fold change: -0.0908

RRIRNRPPRLPRPRPRPVPAPRP
shrunken log2 fold change: 0.459

RRIRNRPPRLPRPRPRPVPWPRP
shrunken log2 fold change: 0.23

RRIRNRPPRLPRPRPRPVQGPRP
shrunken log2 fold change: 0.295

RRIRNRPPRLPRPRPRPVQTPRP
shrunken log2 fold change: 0.12

RRIRNRPPRLPRPRPRPVREPRP
shrunken log2 fold change: 0.249

RRIRNRPPRLPRPRPRPVSAPRP
shrunken log2 fold change: 0.219

RRIRNRPPRLPRPRPRPVTEPRP
shrunken log2 fold change: -0.0551

RRIRNRPPRLPRPRPRPVTMPRP
shrunken log2 fold change: -0.514

RRIRNRPPRLPRPRPRPVTVPRP
shrunken log2 fold change: -0.404

RRIRNRPPRLPRPRPRPVWSPRP
shrunken log2 fold change: 0.0637

RRIRNRPPRLPRPRPRPWCDPRP
shrunken log2 fold change: -0.365

RRIRNRPPRLPRPRPRPWDGPRP
shrunken log2 fold change: 0.185

RRIRNRPPRLPRPRPRPWFPPRP
shrunken log2 fold change: -0.223

RRIRNRPPRLPRPRPRPWFSPRP
shrunken log2 fold change: -0.796

RRIRNRPPRLPRPRPRPWKAPRP
shrunken log2 fold change: -0.0227

RRIRNRPPRLPRPRPRPWKKPRP
shrunken log2 fold change: -0.0178

RRIRNRPPRLPRPRPRPWLDPRP
shrunken log2 fold change: -0.029

RRIRNRPPRLPRPRPRPWLLPRP
shrunken log2 fold change: -0.436

RRIRNRPPRLPRPRPRPWLRPRP
shrunken log2 fold change: -0.0603

RRIRNRPPRLPRPRPRPWLYPRP
shrunken log2 fold change: -0.00103

RRIRNRPPRLPRPRPRPWMFPRP
shrunken log2 fold change: -0.182

RRIRNRPPRLPRPRPRPWMWPRP
shrunken log2 fold change: -0.0133

RRIRNRPPRLPRPRPRPWNCPRP
shrunken log2 fold change: -0.0415

RRIRNRPPRLPRPRPRPWPPPRP
shrunken log2 fold change: 0.692

RRIRNRPPRLPRPRPRPWPWPRP
shrunken log2 fold change: 0.0162

RRIRNRPPRLPRPRPRPWRGPRP
shrunken log2 fold change: 0.226

RRIRNRPPRLPRPRPRPWRRPRP
shrunken log2 fold change: -0.0717

RRIRNRPPRLPRPRPRPWTPPRP
shrunken log2 fold change: -0.0926

RRIRNRPPRLPRPRPRPWTRPRP
shrunken log2 fold change: -0.00821

RRIRNRPPRLPRPRPRPWWLPRP
shrunken log2 fold change: -0.106

RRIRNRPPRLPRPRPRPWYVPRP
shrunken log2 fold change: -0.097

RRIRNRPPRLPRPRPRPYAMPRP
shrunken log2 fold change: 0.0743

RRIRNRPPRLPRPRPRPYDIPRP
shrunken log2 fold change: -0.0698

RRIRNRPPRLPRPRPRPYDPPRP
shrunken log2 fold change: -0.00192

RRIRNRPPRLPRPRPRPYDYPRP
shrunken log2 fold change: -0.129

RRIRNRPPRLPRPRPRPYGSPRP
shrunken log2 fold change: -0.0603

RRIRNRPPRLPRPRPRPYKFPRP
shrunken log2 fold change: -0.286

RRIRNRPPRLPRPRPRPYLCPRP
shrunken log2 fold change: -0.0174

RRIRNRPPRLPRPRPRPYQDPRP
shrunken log2 fold change: -0.064

RRIRNRPPRLPRPRPRPYRAPRP
shrunken log2 fold change: -0.183

RRIRNRPPRLPRPRPRPYRRPRP
shrunken log2 fold change: -0.281

RRIRNRPPRLPRPRPRPYSEPRP
shrunken log2 fold change: -2.12

RRIRNRPPRLPRPRPRPYSHPRP
shrunken log2 fold change: -0.317

RRIRNRPPRLPRPRPRPYSYPRP
shrunken log2 fold change: 0.000362

RRIRNRPPRLPRPRPRPYTVPRP
shrunken log2 fold change: 0.0303

RRIRNRPPRLPRPRPRPYYCPRP
shrunken log2 fold change: -0.0454

RRIRNRPPRLPRPRPRPYYGPRP
shrunken log2 fold change: -0.105

RRIRNRPPRLPRPRPRPYYMPRP
shrunken log2 fold change: -0.416

RRIRPRPPRLPRPRPRPAAAPRP
shrunken log2 fold change: 0.56

RRIRPRPPRLPRPRPRPAACPRP
shrunken log2 fold change: 0.103

RRIRPRPPRLPRPRPRPAEIPRP
shrunken log2 fold change: 0.0712

RRIRPRPPRLPRPRPRPAEKPRP
shrunken log2 fold change: 0.0387

RRIRPRPPRLPRPRPRPAEQPRP
shrunken log2 fold change: 0.411

RRIRPRPPRLPRPRPRPAFFPRP
shrunken log2 fold change: 0.186

RRIRPRPPRLPRPRPRPAHVPRP
shrunken log2 fold change: 0.0491

RRIRPRPPRLPRPRPRPAKFPRP
shrunken log2 fold change: 0.0407

RRIRPRPPRLPRPRPRPAKWPRP
shrunken log2 fold change: 0.0878

RRIRPRPPRLPRPRPRPAMSPRP
shrunken log2 fold change: 0.128

RRIRPRPPRLPRPRPRPAPIPRP
shrunken log2 fold change: 0.0955

RRIRPRPPRLPRPRPRPAQDPRP
shrunken log2 fold change: 0.0233

RRIRPRPPRLPRPRPRPAQIPRP
shrunken log2 fold change: 0.175

RRIRPRPPRLPRPRPRPARNPRP
shrunken log2 fold change: 0.328

RRIRPRPPRLPRPRPRPARQPRP
shrunken log2 fold change: 0.253

RRIRPRPPRLPRPRPRPASDPRP
shrunken log2 fold change: 0.261

RRIRPRPPRLPRPRPRPASMPRP
shrunken log2 fold change: -0.295

RRIRPRPPRLPRPRPRPAVCPRP
shrunken log2 fold change: 0.245

RRIRPRPPRLPRPRPRPAVLPRP
shrunken log2 fold change: 0.163

RRIRPRPPRLPRPRPRPAWFPRP
shrunken log2 fold change: 0.117

RRIRPRPPRLPRPRPRPCANPRP
shrunken log2 fold change: 0.0366

RRIRPRPPRLPRPRPRPCCSPRP
shrunken log2 fold change: -0.556

RRIRPRPPRLPRPRPRPCCTPRP
shrunken log2 fold change: -0.12

RRIRPRPPRLPRPRPRPCDKPRP
shrunken log2 fold change: 0.0695

RRIRPRPPRLPRPRPRPCEFPRP
shrunken log2 fold change: -0.0795

RRIRPRPPRLPRPRPRPCGAPRP
shrunken log2 fold change: 0.206

RRIRPRPPRLPRPRPRPCGVPRP
shrunken log2 fold change: 0.205

RRIRPRPPRLPRPRPRPCGWPRP
shrunken log2 fold change: 0.403

RRIRPRPPRLPRPRPRPCHKPRP
shrunken log2 fold change: -0.0956

RRIRPRPPRLPRPRPRPCKLPRP
shrunken log2 fold change: -0.609

RRIRPRPPRLPRPRPRPCKSPRP
shrunken log2 fold change: -0.0854

RRIRPRPPRLPRPRPRPCKVPRP
shrunken log2 fold change: -0.348

RRIRPRPPRLPRPRPRPCLPPRP
shrunken log2 fold change: 0.0296
